In patent US20090208416A1:

What was measured:
[1] = biological target: NKG2A on rhesus monkey (Macaca mulatta) NK cells (rhesus monkey (Macaca mulatta)) (UniProt Q9MZJ3); test: FACS rhesus whole blood, animal O967
[2] = biological target: NKG2A on rhesus monkey (Macaca mulatta) NK cells (rhesus monkey (Macaca mulatta)) (UniProt Q9MZJ3); test: FACS rhesus whole blood, animal 31828
[3] = biological target: NKG2A on rhesus monkey (Macaca mulatta) NK cells (rhesus monkey (Macaca mulatta)) (UniProt Q9MZJ3); test: FACS rhesus whole blood, animal 34459
[4] = biological target: NKG2A on rhesus monkey (Macaca mulatta) NK cells (rhesus monkey (Macaca mulatta)) (UniProt Q9MZJ3); test: FACS rhesus whole blood, animal R00007
[5] = biological target: NKG2A on rhesus monkey (Macaca mulatta) NK cells (rhesus monkey (Macaca mulatta)) (UniProt Q9MZJ3); test: FACS rhesus whole blood, animal R00013
[6] = biological target: NKG2A on rhesus monkey (Macaca mulatta) NK cells (rhesus monkey (Macaca mulatta)) (UniProt Q9MZJ3); test: FACS rhesus whole blood, animal R00023
[7] = biological target: NKG2A on rhesus monkey (Macaca mulatta) NK cells (rhesus monkey (Macaca mulatta)) (UniProt Q9MZJ3); test: FACS rhesus whole blood, animal R00025
[8] = biological target: NKG2A on rhesus monkey (Macaca mulatta) NK cells (rhesus monkey (Macaca mulatta)) (UniProt Q9MZJ3); test: FACS rhesus whole blood, animal R00037
[9] = biological target: NKG2A on rhesus monkey (Macaca mulatta) NK cells (rhesus monkey (Macaca mulatta)) (UniProt Q9MZJ3); test: FACS rhesus whole blood, animal R00041
[10] = biological target: NKG2A on rhesus monkey (Macaca mulatta) NK cells (rhesus monkey (Macaca mulatta)) (UniProt Q9MZJ3); test: FACS rhesus whole blood, animal R00061
[11] = biological target: NKG2A on rhesus monkey (Macaca mulatta) NK cells (rhesus monkey (Macaca mulatta)) (UniProt Q9MZJ3); test: FACS rhesus whole blood, animal R00077
[12] = biological target: NKG2A on rhesus monkey (Macaca mulatta) NK cells (rhesus monkey (Macaca mulatta)) (UniProt Q9MZJ3); test: FACS rhesus whole blood, animal R00085
[13] = biological target: NKG2A on rhesus monkey (Macaca mulatta) NK cells (rhesus monkey (Macaca mulatta)) (UniProt Q9MZJ3); test: FACS rhesus whole blood, animal R00093
[14] = biological target: NKG2A on rhesus monkey (Macaca mulatta) NK cells (rhesus monkey (Macaca mulatta)) (UniProt Q9MZJ3); test: FACS rhesus whole blood, animal R00099
[15] = biological target: NKG2A on rhesus monkey (Macaca mulatta) NK cells (rhesus monkey (Macaca mulatta)) (UniProt Q9MZJ3); test: FACS rhesus whole blood, animal R00101
[16] = biological target: NKG2A on rhesus monkey (Macaca mulatta) NK cells (rhesus monkey (Macaca mulatta)) (UniProt Q9MZJ3); test: FACS rhesus whole blood, animal R99273
[17] = biological target: NKG2A on cynomolgus monkey NK cells (cynomolgus monkey) (UniProt Q68VD2); test: FACS cynomolgus whole blood, animal 1221
UniProt Q68VD2, sequence (Q68VD2 entry or part of it): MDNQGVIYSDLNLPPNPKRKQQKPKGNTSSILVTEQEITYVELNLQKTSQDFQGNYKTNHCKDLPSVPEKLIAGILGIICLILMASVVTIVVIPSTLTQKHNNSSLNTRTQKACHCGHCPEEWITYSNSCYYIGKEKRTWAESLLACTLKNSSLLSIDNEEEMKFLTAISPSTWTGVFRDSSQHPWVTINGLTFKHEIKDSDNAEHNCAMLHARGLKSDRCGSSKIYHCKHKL

[18] = biological target: NKG2A on cynomolgus monkey NK cells (cynomolgus monkey) (UniProt Q68VD2); test: FACS cynomolgus whole blood, animal M859
[19] = biological target: NKG2A on cynomolgus monkey NK cells (cynomolgus monkey) (UniProt Q68VD2); test: FACS cynomolgus whole blood, animal R390
[20] = biological target: NKG2A on cynomolgus monkey NK cells (cynomolgus monkey) (UniProt Q68VD2); test: FACS cynomolgus whole blood, animal T270
[21] = biological target: NKG2A on cynomolgus monkey NK cells (cynomolgus monkey) (UniProt Q68VD2); test: FACS cynomolgus whole blood, animal T788
[22] = biological target: NKG2A on cynomolgus monkey NK cells (cynomolgus monkey) (UniProt Q68VD2); test: FACS cynomolgus whole blood, animal AK565
[23] = biological target: NKG2A on cynomolgus monkey NK cells (cynomolgus monkey) (UniProt Q68VD2); test: FACS cynomolgus whole blood, animal AK729
[24] = biological target: NKG2A on cynomolgus monkey NK cells (cynomolgus monkey) (UniProt Q68VD2); test: FACS cynomolgus whole blood, animal AL210
[25] = biological target: NKG2A on cynomolgus monkey NK cells (cynomolgus monkey) (UniProt Q68VD2); test: FACS cynomolgus whole blood, animal AL303
[26] = biological target: NKG2A on cynomolgus monkey NK cells (cynomolgus monkey) (UniProt Q68VD2); test: FACS cynomolgus whole blood, animal AL389
[27] = biological target: NKG2A on rhesus monkey (Macaca mulatta) NK cells (rhesus monkey (Macaca mulatta)) (UniProt Q9MZJ3); test: FACS rhesus whole blood, mean over animals
[28] = biological target: NKG2A on rhesus monkey (Macaca mulatta) NK cells (rhesus monkey (Macaca mulatta)) (UniProt Q9MZJ3); test: FACS rhesus whole blood, animal R00073 (5.6 kg)
[29] = biological target: NKG2A on rhesus monkey (Macaca mulatta) NK cells (rhesus monkey (Macaca mulatta)) (UniProt Q9MZJ3); test: FACS rhesus whole blood, animal R00073 (6.1 kg)
[30] = biological target: NKG2A on cynomolgus monkey NK cells (cynomolgus monkey) (UniProt Q68VD2); test: FACS cynomolgus whole blood, mean of 10 animals

UniProt Q9MZJ3, sequence (Q9MZJ3 whole entry): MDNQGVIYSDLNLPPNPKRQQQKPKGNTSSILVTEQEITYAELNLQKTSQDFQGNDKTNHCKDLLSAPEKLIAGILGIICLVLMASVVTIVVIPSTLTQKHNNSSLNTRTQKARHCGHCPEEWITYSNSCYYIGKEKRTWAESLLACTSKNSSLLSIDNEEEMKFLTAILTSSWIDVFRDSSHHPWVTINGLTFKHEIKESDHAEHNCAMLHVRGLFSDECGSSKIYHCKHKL

A % NK+ [1] of 84.8%, an MFI [1] of 62.3 and an MFI NK+ [1] of 73.4 were found for Z199 anti-NKG2A monoclonal antibody in this work. It also gave a % NK+ [2] of 99.8%, an MFI [2] of 101 and an MFI NK+ [2] of 101. The % NK+ [3] was 96.2%, the MFI [3] was 63.8 and the MFI NK+ [3] was 66.3. For the same substance, the % NK+ [4] was 99.6%, the MFI [4] was 34.9 and the MFI NK+ [4] was 35. It also gave a % NK+ [5] of 97.8%, an MFI [5] of 38.8 and an MFI NK+ [5] of 39.7. The % NK+ [6] was 96.4%, the MFI [6] was 34 and the MFI NK+ [6] was 35.3. It also gave a % NK+ [7] of 97.3%, an MFI [7] of 30 and an MFI NK+ [7] of 30.9. For the same substance, the % NK+ [8] was 96.9%, the MFI [8] was 26.7 and the MFI NK+ [8] was 27.5. It also gave a % NK+ [9] of 89.6%, an MFI [9] of 33.1 and an MFI NK+ [9] of 36.9. It also gave a % NK+ [10] of 40.7%, an MFI [10] of 1.6 and an MFI NK+ [10] of 2.4. The % NK+ [11] was 97.1%, the MFI [11] was 30.4 and the MFI NK+ [11] was 31.3. It also gave a % NK+ [12] of 91.9%, an MFI [12] of 68.4 and an MFI NK+ [12] of 74.4. The % NK+ [13] was 97.9%, the MFI [13] was 81.9 and the MFI NK+ [13] was 83.6. The % NK+ [14] was 97.6%, the MFI [14] was 31.1 and the MFI NK+ [14] was 31.8. It also gave a % NK+ [15] of 98.7%, an MFI [15] of 37.1 and an MFI NK+ [15] of 37.6. For the same substance, the % NK+ [16] was 98%, the MFI [16] was 32.7 and the MFI NK+ [16] was 33.4. For the same substance, the % NK+ [17] was 96.7%, the MFI [17] was 105 and the MFI NK+ [17] was 109. The % NK+ [18] was 95.1%, the MFI [18] was 144 and the MFI NK+ [18] was 152. The % NK+ [19] was 99%, the MFI [19] was 32.3 and the MFI NK+ [19] was 32.6. For the same substance, the % NK+ [20] was 97.7%, the MFI [20] was 113 and the MFI NK+ [20] was 116. For the same substance, the % NK+ [21] was 97%, the MFI [21] was 123 and the MFI NK+ [21] was 126. The % NK+ [22] was 90.7%, the MFI [22] was 28.2 and the MFI NK+ [22] was 31. It also gave a % NK+ [23] of 99.4%, an MFI [23] of 37.4 and an MFI NK+ [23] of 37.7. It also gave a % NK+ [24] of 92.7%, an MFI [24] of 126 and an MFI NK+ [24] of 136. For the same substance, the % NK+ [25] was 99.1%, the MFI [25] was 129 and the MFI NK+ [25] was 130. For the same substance, the % NK+ [26] was 95.5%, the MFI [26] was 223 and the MFI NK+ [26] was 234. For the same substance, the % NK+ (Mean) [27] was 93.2%, the MFI (Mean) [27] was 29.6 and the MFI NK+ (Mean) [27] was 30.6. It also gave a % NK+ [28] of 99.1%, an MFI [28] of 31.6 and an MFI NK+ [28] of 31.9. The % NK+ [29] was 98%, the MFI [29] was 31.9 and the MFI NK+ [29] was 32.6. For the same substance, the % NK+ (Mean) [30] was 96.3%, the MFI (Mean) [30] was 106 and the MFI NK+ (Mean) [30] was 110.
